How the values were obtained:
[1] = target: ProTα labeled at positions 56 and 110 (FRET-labeled prothymosin α) (human) (UniProt P06454); assay: FRET or BRET
[2] = target: prothymosin α (unlabeled, wildtype) (human) (UniProt P06454); assay: NMR titration
[3] = target: ProTα labeled at positions 56 and 110 (FRET-labeled prothymosin α) (human) (UniProt P06454); assay: stopped-flow FRET kinetics

Sequence of linker histone H1.0 (P07305 whole entry): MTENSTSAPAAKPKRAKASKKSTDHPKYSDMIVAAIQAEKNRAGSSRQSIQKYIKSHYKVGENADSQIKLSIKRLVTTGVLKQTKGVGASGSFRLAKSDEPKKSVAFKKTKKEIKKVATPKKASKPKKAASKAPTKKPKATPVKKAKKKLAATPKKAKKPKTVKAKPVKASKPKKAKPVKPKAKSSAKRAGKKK

Row | Kd [1] | stoichiometry N [2] | koff [3] | Substance
1 | 1.9 µM | > 4 |  | globular domain of H1 (domain or fragment)
2 |  |  | 0.0065 s⁻¹ | linker histone H1.0 (from UniProt P07305 1-194) (natural protein)
